The source of these data is patent US20260062442A1, “COMPOSITIONS AND METHODS FOR PURIFYING ANTIGEN-BINDING ANTIBODY FRAGMENTS USING PEPTIDE LIGANDS” (North Carolina State University, priority 2022, published 2026).

As usually defined, the Kd is the concentration at which binding is half-saturated.

Ends that are not written are not given here.

Assay [1] addresses human Fab-κ (human). In words: equilibrium adsorption isotherm on resin, Langmuir fit.
The target of assay [2] is engineered monoclonal Fab-κ (0.171 mg/mL in clarified CHO-K1 cell culture harvest). The experiment in a line: capture from CHO-K1 CCCF with engineered Fab 0.171 mg/mL, elution pH 2.5; yield by anti-human Fab ELISA. (In general: An ELISA detects its analyte on a solid surface through an enzyme-linked reagent.)
Assay [3] has as its system human Fab-κ. In words: Dynamic binding of human Fab-κ in non-competitive condition on peptide-Toyopearl resins. To be noted: κ and λ Fabs, 1 mg/mL in PBS, residence time 2 min. As for the experimental part:
(§1) Dynamic binding of human Fab-κ and Fab-λ in non-competitive condition. The peptides listed in Table 3 were synthesized on Toyopearl resins as described herein, and the resulting adsorbents were packed into 0.1 mL (30×2.1 mm) columns, installed on a Waters Alliance 2695 HPLC system (Milford, MA), and equilibrated with PBS at pH 7.4. […] The subsequent chromatographic steps of washing with PBS, elution with 0.2 M acetate buffer pH 4, regeneration with 0.1 M glycine buffer pH 2.5, and equilibration with PBS were all performed at 348 cm/h. The dynamic binding protocol was repeated with 50 μL of human Fab-κ and Fab-λ, both at 1 mg/mL in PBS. The column effluent was continuously monitored at 280 nm by UV spectrophotometry. The yield was determined by peak area analysis and determined by taking the area of the elution peak divided by the flow-through, elution, and regeneration peak areas. Finally, the dynamic binding capacity at 10% flowthrough of […]-Toyopearl resin was measured via continuous loading of a solution of human polyclonal Fab at either 1, 2, or 5 mg/mL in PBS at the linear velocity of either 173, 87, or 35 cm/h, corresponding to the residence times (RT) of 1, 2, and 5 min, until reaching saturation of the adsorbent. […]

Assay [4] relates to human polyclonal Fab. The experiment in a line: Dynamic binding of human polyclonal Fab on peptide-Toyopearl resins (chromatograms). To be noted: residence time 2 min; for amount of human Fab that flowed through: human Fab at 2 mg/mL in PBS; for binding of human polyclonal Fab (chromatogram): human polyclonal Fab at 2 mg/mL in PBS. As for the experimental part: Dynamic binding of human Fab-κ and Fab-λ in non-competitive condition. The peptides listed in Table 3 were synthesized on Toyopearl resins as described herein, and the resulting adsorbents were packed into 0.1 mL (30×2.1 mm) columns, installed on a Waters Alliance 2695 HPLC system (Milford, MA), and equilibrated with PBS at pH 7.4. […] The subsequent chromatographic steps of washing with PBS, elution with 0.2 M acetate buffer pH 4, regeneration with 0.1 M glycine buffer pH 2.5, and equilibration with PBS were all performed at 348 cm/h. The dynamic binding protocol was repeated with 50 μL of human Fab-κ and Fab-λ, both at 1 mg/mL in PBS. The column effluent was continuously monitored at 280 nm by UV spectrophotometry. The yield was determined by peak area analysis and determined by taking the area of the elution peak divided by the flow-through, elution, and regeneration peak areas. Finally, the dynamic binding capacity at 10% flowthrough of […]-Toyopearl resin was measured via continuous loading of a solution of human polyclonal Fab at either 1, 2, or 5 mg/mL in PBS at the linear velocity of either 173, 87, or 35 cm/h, corresponding to the residence times (RT) of 1, 2, and 5 min, until reaching saturation of the adsorbent. The dynamic binding capacity of Protein L-agarose resin was measured via continuous loading of human polyclonal Fab at 1 mg/mL in PBS at the linear velocity of either 173 or 87 cm/h, corresponding to RT of 1 and 2 min, until reaching saturation of the adsorbent.
Secondary selection of Fab-binding peptide ligands via dynamic binding studies. The candidate ligands selected from library screening were conjugated to Toyopearl AF-Amino-650M resin and evaluated via Fab binding studies in dynamic mode. Toyopearl resin was selected for chromatographic evaluation owing to its low non-specific protein adsorption, low compressibility, and strong chemical stability. The residence time of 2 minutes (RT: 2 min) was adopted to mimic the loading conditions utilized in industrial bioprocessing. A solution of human polyclonal Fab at 2 mg/mL in PBS was adopted as feedstock to discern ligands that either bind all Fab or target selectively Fab-κ or Fab-λ; accordingly, the top ligands by elution peak area were subjected to further analysis with either pure k or λ subtypes. Finally, in line with library screening, A 0.2 M acetate buffer was utilized at pH 4 for Fab elution; this value of pH is sufficient to ensure high yield without compromising the integrity and bioactivity of the product. This represents a distinct advantage of peptide ligands with moderate affinity compared to high-affinity protein ligands; for comparison, Protein L as well as KappaSelect and LambdaFabSelect resins require elution at pH 2.5-3.

Assay [5] has as its system scFv13R4. In words: Purification of scFv from P. pastoris perfusate. The settings on record: scFv eluted at 0.1 M glycine pH 2.5, not at pH 4. As for the experimental part: Preparation of spiked feedstock. A wild-type X33 P. pastoris strain was obtained from ThermoFisher Scientific as an agar stab. This stab was used to create freezer stocks, which were stored at −80° C. A vial from the freezer stock was thawed, plated on a yeast extract peptone dextrose (YPD) agar plate, and incubated at 30° C. A single colony was then used to inoculate a 1 L vented shake flask containing 100 mL of Buffered Glycerol-complex Medium (BMGY), and the flask was incubated at 250 rpm at 30° C. A 300 mL bioreactor connected to a perfusion device was prepared and inoculated with cells harvested from the shake flask. After an initial growth phase, the perfusion system was activated, and fluid was continuously extracted from the bioreactor at a rate of 1.5 vessel volumes per day (VVD) while retaining the cells. Simultaneously to activating the perfusion system, a 2% v/v methanol feedstock containing IgG at 0.5 mg/mL began to be fed continuously into the bioreactor at 1.5 VVD. […]
Purification of scFv from P. pastoris perfusate. […] Washing, elution, and regeneration steps were all performed at 0.5 mL/min (231 cm/h), while the effluent was continuously monitored by UV spectrophotometry at 280 nm. […] The collected fractions were analyzed via non-reducing SDS-PAGE analysis after concentration and diafiltration to PBS at pH 7.4 by a 10 kDa MWCO spin concentrator.

Assay [6] deals with human polyclonal Fab. The experiment in a line: Dynamic binding capacity at 10% breakthrough with human polyclonal Fab in PBS. The settings on record: RT of 2 min, range. The protocol: as §1
For assay [7], the system named is monoclonal Fab-κ. To be noted: cited from earlier work.
Assay [8] addresses human Fab-λ (human). The experiment in a line: dynamic binding on peptide-Toyopearl column, Fab 1 mg/mL in PBS, residence time 2 min, elution pH 4; yield = elution peak area over total peak area.
In assay [9] the target is human Fab-κ (human). Described as above.
Assay [10] concerns the target human polyclonal Fab (human). In words: dynamic binding on peptide-Toyopearl column, human Fab 2 mg/mL in PBS, residence time 2 min.
Assay [11] addresses Certolizumab pegol. In words: capture from null CHO-S CCCF spiked with Certolizumab 1 mg/mL, elution pH 4; yield by anti-human Fab ELISA.
Assay [12] addresses human polyclonal IgG (human). The experiment in a line: capture of IgG 0.5 mg/mL from P. pastoris perfusate, elution pH 4; yield by Protein G HPLC.
Assay [13] concerns the target human polyclonal Fab (human). In words: dynamic binding capacity at 10% breakthrough, Fab 5 mg/mL in PBS, residence time 1 min.
For assay [14], the target named is human polyclonal Fab (human). The experiment in a line: dynamic binding capacity at 10% breakthrough, Fab 2 mg/mL in PBS, residence time 2 min.
In assay [15] the target is human Fab-λ (human). In words: dynamic binding on peptide-Toyopearl column, Fab 1 mg/mL in PBS, residence time 2 min.
Assay [16] concerns the target human Fab-κ (human). The description is as above.
Assay [17] deals with human polyclonal IgG (human). In words: dynamic binding capacity at 10% breakthrough, P. pastoris perfusate with IgG 0.5 mg/mL, residence time 2 min.
Assay [18] concerns the target human polyclonal Fab (human). In words: dynamic binding capacity at 10% breakthrough, Fab 1 mg/mL in PBS, residence time 5 min.
The target of assay [19] is human polyclonal Fab (human). The experiment in a line: capture from null CHO-S CCCF spiked with human Fab 1 mg/mL, elution pH 4; yield by anti-human Fab ELISA.
In assay [20] the target is human polyclonal Fab (human). The experiment in a line: dynamic binding capacity at 10% breakthrough, Fab 1 mg/mL in PBS, residence time 1 min.
Assay [21] addresses human polyclonal Fab (human). The experiment in a line: equilibrium adsorption isotherm on resin, Langmuir fit.
Assay [22] concerns the target engineered monoclonal Fab-κ (0.171 mg/mL in clarified CHO-K1 cell culture harvest). The experiment in a line: capture from CHO-K1 CCCF with engineered Fab 0.171 mg/mL, elution pH 4; yield by anti-human Fab ELISA.
Assay [23] has as its target human polyclonal Fab (human). The experiment in a line: dynamic binding capacity at 10% breakthrough, Fab 1 mg/mL in PBS, residence time 2 min.
Assay [24] concerns the target Certolizumab pegol. The experiment in a line: capture from CHO-S CCCF spiked with Certolizumab 1 mg/mL, elution pH 4.
For assay [25], the target named is human polyclonal Fab (human). In words: dynamic binding capacity at 10% breakthrough, Fab 5 mg/mL in PBS, residence time 2 min.

In [1], Protein L-Sepharose resin had a Kd of 30.9 nM and a Qmax (mg per mL of resin) of 20.7.

On to Protein L-agarose resin, for which the Yield in assay [2] was determined as 91%.

For the molecule IIHRRAFWWFPN, the “fraction of the loaded Fab bound” value in assay [3] is “approximately half”.

As for “WHYNWQDVSDRQ [A5, variant peptide ligand developed by Nascimento et al]”, the “amount of human Fab that flowed through” value in assay [4] came to 61%.

For the molecule “HQNHHSTFRWEIY [C7, variant peptide ligand developed by Nascimento et al]”, the “amount of human Fab that flowed through” value in [4] is reported as 79%.

For the molecule FRWNFHRNTFFP, the “binding of human polyclonal Fab (chromatogram)” value in [4] is on record as “very low flow-through peak area”. For the same molecule, the “relative affinity for scFv vs Fab” value in [5] was “higher affinity for scFv than Fab”. Further, the DBC10% in [6] was 6 to 16 mg/mL. In [3], the “fraction of the loaded Fab bound” value was “approximately 90%”.

In the case of “WIPNSEFEHERTK [B1, peptide ligand for monoclonal Fab-κ identified by Nascimento et al]”, the “binding of human polyclonal Fab (chromatogram)” value in [4] is reported as “failed to bind”. The “affinity for two other monoclonal Fabs” value in assay [7] is listed as “little-to-no affinity”.

B1: … (peptide)
peptide: IRHHNIWFNTIA
modifications: also: C-terminus attached to Toyopearl AF-Amino-650M resin or ChemMatrix bead
B1 yielded a Fab-λ Yield in assay [8] of 42%. Moreover, in assay [9], the Fab-κ Yield turned out to be 42%.

B2: … (peptide)
peptide: HQNHHSTFRWEIY
modifications: also: attached to Toyopearl resin, site not given here
Regarding B2, the percent of human Fab that flowed through (unbound) in assay [10] worked out at 79%.

B3: … (peptide)
peptide: FRWNFHRNTFFP
modifications: also: C-terminus attached to Toyopearl AF-Amino-650M resin or ChemMatrix bead
Take B3: the Yield in [11] worked out at 96%; in [12] it was 33%; in assay [19], 94.1%; in [22] it was 93.3%; in assay [24], 96.5%. Moreover, the DBC10% (mg Fab per mL of resin) in assay [13] turned out to be 15.5; in assay [14] it was 10.9; in assay [18], 7; in assay [20], 4.5; in [23], 6; in assay [25], 16.5. This molecule came in with a Fab-λ Yield in assay [8] of 91%. Moreover, in [9], the Fab-κ Yield was 89%. In addition, the percent of the load bound in [15] and in [16] was 90% each time. Also, the DBC10% (mg IgG per mL of resin) in assay [17] stood at 13.4. For the same molecule, the DBC10% (mg IgG per mL resin) in assay [17] is 13.4. The results for the Kd in assay [21] and in assay [1] were 2160 nM and 2050 nM, respectively. Also, the Qmax (mg per mL of resin) in [21] came out at 20.4; in assay [1] it was 19.

B4: … (peptide)
peptide: RWTIWPPNWHPP
modifications: also: C-terminus attached to Toyopearl AF-Amino-650M resin or ChemMatrix bead
In turn, B4 yielded a Fab-λ Yield in assay [8] of 53%. This molecule also yielded a Fab-κ Yield in [9] of 40%.

B5: … (peptide)
peptide: IIHRRAFWWFPN
modifications: also: C-terminus attached to Toyopearl AF-Amino-650M resin or ChemMatrix bead
Molecule B5 returned a Fab-λ Yield in assay [8] of 66%. The same molecule gave a Fab-κ Yield in assay [9] of 55%. In [21], this molecule returned a Kd of 5140 nM and a Qmax (mg per mL of resin) of 13.5. For the same molecule, in [1], the Kd stood at 5820 nM and the Qmax (mg per mL of resin) stood at 11.9.

B6: … (peptide)
peptide: WHYNWQDVSDRQ
modifications: also: attached to Toyopearl resin, site not given here
Turning to B6, the percent of human Fab that flowed through (unbound) in assay [10] stood at 61%.
